Laboratory results as given in patent US20250092426, “CAS ENDONUCLEASES AND RELATED METHODS” (Flagship Pioneering Innovations VII, LLC, published 2025).

Molecular target: T1, CasEnd-20 (synthetic construct)
T1 chain: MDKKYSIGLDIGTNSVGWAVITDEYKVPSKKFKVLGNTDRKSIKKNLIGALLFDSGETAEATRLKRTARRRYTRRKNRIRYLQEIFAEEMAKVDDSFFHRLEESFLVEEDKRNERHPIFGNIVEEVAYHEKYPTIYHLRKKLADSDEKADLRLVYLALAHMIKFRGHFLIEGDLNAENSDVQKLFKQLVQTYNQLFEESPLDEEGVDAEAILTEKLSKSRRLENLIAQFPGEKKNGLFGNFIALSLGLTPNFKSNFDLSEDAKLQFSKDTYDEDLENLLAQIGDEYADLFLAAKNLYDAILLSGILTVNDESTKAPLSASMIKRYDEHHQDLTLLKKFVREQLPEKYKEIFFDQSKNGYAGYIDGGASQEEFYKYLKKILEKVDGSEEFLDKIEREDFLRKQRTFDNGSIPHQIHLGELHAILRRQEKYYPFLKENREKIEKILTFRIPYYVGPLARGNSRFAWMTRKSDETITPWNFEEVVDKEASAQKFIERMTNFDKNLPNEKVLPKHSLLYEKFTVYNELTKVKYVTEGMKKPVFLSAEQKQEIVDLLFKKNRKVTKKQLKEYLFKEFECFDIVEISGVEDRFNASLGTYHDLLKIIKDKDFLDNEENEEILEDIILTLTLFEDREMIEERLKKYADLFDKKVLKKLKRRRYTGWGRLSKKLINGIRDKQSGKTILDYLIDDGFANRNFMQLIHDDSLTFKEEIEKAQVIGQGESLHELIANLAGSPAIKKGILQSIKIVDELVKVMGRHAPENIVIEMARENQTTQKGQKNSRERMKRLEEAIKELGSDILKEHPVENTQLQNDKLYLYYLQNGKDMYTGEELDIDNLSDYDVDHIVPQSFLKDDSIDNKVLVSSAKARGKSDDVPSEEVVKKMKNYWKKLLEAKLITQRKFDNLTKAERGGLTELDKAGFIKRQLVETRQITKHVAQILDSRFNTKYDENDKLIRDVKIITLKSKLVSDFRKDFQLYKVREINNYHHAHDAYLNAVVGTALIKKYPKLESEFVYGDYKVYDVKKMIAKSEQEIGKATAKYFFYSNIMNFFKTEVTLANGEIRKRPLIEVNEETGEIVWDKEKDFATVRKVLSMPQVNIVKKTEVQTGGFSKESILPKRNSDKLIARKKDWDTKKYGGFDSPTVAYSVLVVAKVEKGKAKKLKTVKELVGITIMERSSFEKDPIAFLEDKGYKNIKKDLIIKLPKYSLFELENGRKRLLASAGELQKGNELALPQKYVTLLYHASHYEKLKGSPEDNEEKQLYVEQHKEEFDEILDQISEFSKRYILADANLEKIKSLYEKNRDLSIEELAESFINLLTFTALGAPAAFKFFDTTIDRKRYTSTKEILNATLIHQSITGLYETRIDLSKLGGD
Assay: cell_activity; +++; K562, second nick guide SEQ 380; PAM not stated
Outline: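 K562 cells (250,000) nucleofected with plasmids for the reverse transcriptase–Cas endonuclease fusion, template RNA introducing an SNP at endogenous HBB, and second nick guide RNA (250 ng each). Genomic DNA harvested at day 3; percent amplicons with intended edit measured by targeted amplicon sequencing.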

B1: HBB template RNA ; HBB protospacer (ssRNA ; dsDNA)
RNA: CAUGGUGCACCUGACUCCUGGUUUUAGAGCUAGAAAUAGCAAGUUAAAAUAAGGCUAGUCCGUUAUCAACUUGAAAAAGUGGCACCGAGUCGGUGCACGGCAGACUUCUCUGCCGGAGUCAGGUGC
DNA 1: CATGGTGCACCTGACTCCTG
DNA 2: CAGGAGTCAGGTGCACCATG
B1 was tested, and the activity was ≥ 100 % of reference.
